Measurements from PMC5749897.
Where two headings read alike, the source gives them in different places.

Legend:
HCV1 [1] = experiment: flow cytometry; settings: read off a plot
AP33 [2] = experiment: flow cytometry; settings: read off a plot
AR2A = experiment: flow cytometry; settings: read off a plot
AR1A = experiment: flow cytometry
AR1B = experiment: flow cytometry
HCV1 [3] = experiment: flow cytometry or ELISA; settings: read off a plot
A4 [4] = experiment: flow cytometry or ELISA; settings: read off a plot
AP33 [5] = experiment: flow cytometry or ELISA; settings: read off a plot
HCV1 [6] = experiment: ELISA; settings: first point of the titration, dilution 1/100; parent: est. 1.3; read off a plot
[7] = molecular target: CD81-Fc (K124T), a mutant that reduces CD81 dimerization (UniProt P60033); experiment: ELISA; settings: first point of the titration, dilution 1/1; parent: est. 0.65; read off a plot
[8] = molecular target: recombinant CD81-LEL Fc-fusion protein; experiment: ELISA; settings: first point of the titration, dilution 1/1; parent: est. 0.42; read off a plot
A4 [9] = experiment: flow cytometry; settings: read off a plot
AR3A = experiment: flow cytometry; settings: read off a plot
[10] = molecular target: soluble WT E2c (E2 core domain); experiment: ELISA; settings: first point of the titration, dilution 1/1; parent: est. 0.42; read off a plot
[11] = molecular target: E1E2 Y276A (H77 alanine-scanning library clone) (hepatitis C virus genotype 1a, strain H77); experiment: flow cytometry on cells
[12] = molecular target: E1E2 I622A (H77 alanine-scanning library clone) (hepatitis C virus genotype 1a, strain H77); experiment: flow cytometry on cells
[13] = molecular target: E1E2 W616A (H77 alanine-scanning library clone) (hepatitis C virus genotype 1a, strain H77); experiment: flow cytometry on cells
[14] = molecular target: E1E2 Y613A (plasmid H77c, no V5 tag) (hepatitis C virus genotype 1a, strain H77); experiment: flow cytometry on cells
[15] = molecular target: E1E2 G278A (H77 alanine-scanning library clone) (hepatitis C virus genotype 1a, strain H77); experiment: flow cytometry on cells
[16] = molecular target: E1E2 D279A (H77 alanine-scanning library clone) (hepatitis C virus genotype 1a, strain H77); experiment: flow cytometry on cells
[17] = molecular target: E1E2 I622A, ELISA antigen (transfected cell lysate) (hepatitis C virus genotype 1a, strain H77); experiment: ELISA
[18] = molecular target: E1E2 F627A, ELISA antigen (transfected cell lysate) (hepatitis C virus genotype 1a, strain H77); experiment: ELISA

CD81-Fc (K124T), a mutant that reduces CD81 dimerization, sequence (P60033 whole entry K124T, looked up, the tested form may be a part): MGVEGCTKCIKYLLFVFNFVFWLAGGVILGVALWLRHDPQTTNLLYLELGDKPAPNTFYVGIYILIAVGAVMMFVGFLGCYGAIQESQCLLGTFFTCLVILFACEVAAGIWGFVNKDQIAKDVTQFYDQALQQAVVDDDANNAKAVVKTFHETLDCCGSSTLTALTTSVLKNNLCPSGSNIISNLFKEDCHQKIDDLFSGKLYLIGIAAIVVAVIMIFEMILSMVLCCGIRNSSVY

For “wild-type HCV E1E2 (genotype 1a, strain H77) expression construct with C-terminal V5 epitope tag T518A”, the percent of parent (HCV1 [1]) was 100 % of WT, the percent of parent (AP33 [2]) was 106 % of WT and the percent of parent (AR2A) was 140 % of WT. The percent of parent (AR1A; read off a plot) was 100 % of WT.

“wild-type HCV E1E2 (genotype 1a, strain H77) expression construct with C-terminal V5 epitope tag P544A” was tested, and the percent of parent (HCV1 [1]) was 45 % of WT, the percent of parent (AR1B; read off a plot) was 5 % of WT and the percent of parent (AR1A; read off a plot) was 9 % of WT.

With “wild-type HCV E1E2, plasmid H77c (no V5 tag) K562A” the percent of parent (HCV1 [3]) was 95 % of WT, the percent of parent (A4 [4]) was 77 % of WT and the percent of parent (AP33 [5]) was 75 % of WT.

“wild-type HCV E1E2 (genotype 1a, strain H77) expression construct with C-terminal V5 epitope tag N548A” was tested, and the percent of parent (AR1B) was < 0 % of WT and the percent of parent (AR1A; read off a plot) was 23 % of WT.

In the case of “wild-type HCV E1E2, plasmid H77c (no V5 tag) D346A”, the percent of parent (HCV1 [3]) is reported as 98 % of WT, the percent of parent (A4 [4]) is reported as 95 % of WT and the percent of parent (AP33 [5]) is reported as 100 % of WT.

soluble WT E2c (E2 core domain) F627A gave a response (HCV1 [6]) of 1.3 OD450, a response [7] of 0.62 OD450 and a response [8] of 0.38 OD450.

“wild-type HCV E1E2, plasmid H77c (no V5 tag) C272A” was tested, and the percent of parent (HCV1 [3]) was 98 % of WT, the percent of parent (A4 [4]) was 93 % of WT and the percent of parent (AP33 [5]) was 85 % of WT.

“wild-type HCV E1E2 (genotype 1a, strain H77) expression construct with C-terminal V5 epitope tag Y485A” was tested, and the percent of parent (AP33 [2]) was 104 % of WT and the percent of parent (AR1A; read off a plot) was 43 % of WT.

In the case of “wild-type HCV E1E2, plasmid H77c (no V5 tag) T396A”, the percent of parent (HCV1 [3]) is reported as 98 % of WT, the percent of parent (A4 [4]) is reported as 85 % of WT and the percent of parent (AP33 [5]) is reported as 68 % of WT.

“wild-type HCV E1E2 (genotype 1a, strain H77) expression construct with C-terminal V5 epitope tag W437A” was tested, and the percent of parent (HCV1 [1]) was 95 % of WT and the percent of parent (AP33 [2]) was 77 % of WT.

“wild-type HCV E1E2 (genotype 1a, strain H77) expression construct with C-terminal V5 epitope tag P545A” was tested, and the percent of parent (HCV1 [1]) was 92 % of WT, the percent of parent (AR1B; read off a plot) was 6 % of WT and the percent of parent (AR1A; read off a plot) was 18 % of WT.

For “wild-type HCV E1E2 (genotype 1a, strain H77) expression construct with C-terminal V5 epitope tag Y632A”, the percent of parent (AR1A) was < 0 % of WT.

For “wild-type HCV E1E2 (genotype 1a, strain H77) expression construct with C-terminal V5 epitope tag W549A”, the percent of parent (AR1B) was < 0 % of WT and the percent of parent (AR1A) was < 0 % of WT.

For “wild-type HCV E1E2, plasmid H77c (no V5 tag) Y624A”, the percent of parent (A4 [4]) was 43 % of WT and the percent of parent (AP33 [5]) was 38 % of WT.

In the case of “wild-type HCV E1E2, plasmid H77c (no V5 tag) W712A”, the percent of parent (HCV1 [3]) is reported as 82 % of WT, the percent of parent (A4 [4]) is reported as 80 % of WT and the percent of parent (AP33 [5]) is reported as 81 % of WT.

For “wild-type HCV E1E2 (genotype 1a, strain H77) expression construct with C-terminal V5 epitope tag C503A”, the percent of parent (AR1A; read off a plot) was 200 % of WT.

In the case of “wild-type HCV E1E2, plasmid H77c (no V5 tag) R237A”, the percent of parent (HCV1 [3]) is reported as 105 % of WT, the percent of parent (A4 [4]) is reported as 82 % of WT and the percent of parent (AP33 [5]) is reported as 110 % of WT.

“soluble WT E2c (E2 core domain) I622A; F627A” gave a response (HCV1 [6]) of 1.3 OD450, a response [7] of 1.2 OD450 and a response [8] of 0.94 OD450.

In the case of “wild-type HCV E1E2 (genotype 1a, strain H77) expression construct with C-terminal V5 epitope tag G547A”, the percent of parent (HCV1 [1]) is reported as 44 % of WT, the percent of parent (A4 [9]) is reported as 74 % of WT and the percent of parent (AR1B; read off a plot) is reported as 22 % of WT. The percent of parent (AR1A; read off a plot) was 18 % of WT.

With “wild-type HCV E1E2 (genotype 1a, strain H77) expression construct with C-terminal V5 epitope tag G440A” the percent of parent (HCV1 [1]) was 84 % of WT, the percent of parent (AP33 [2]) was 81 % of WT and the percent of parent (AR3A) was 20 % of WT. The percent of parent (AR2A) was 82 % of WT and the percent of parent (AR1A; read off a plot) was 84 % of WT.

In the case of soluble WT E2c (E2 core domain) I622A, the response (HCV1 [6]) is reported as 1.3 OD450, the response [7] is reported as 1.5 OD450 and the response [8] is reported as 1.4 OD450.

With “recombinant CD81-LEL Fc-fusion protein K124T” the response [10] was 0.65 OD450.

With “wild-type HCV E1E2 (genotype 1a, strain H77) expression construct with C-terminal V5 epitope tag G495A” the percent of parent (HCV1 [1]) was 92 % of WT and the percent of parent (AR1A; read off a plot) was 26 % of WT.

For “wild-type HCV E1E2, plasmid H77c (no V5 tag) Q336A”, the percent of parent (HCV1 [3]) was 88 % of WT, the percent of parent (A4 [4]) was 88 % of WT and the percent of parent (AP33 [5]) was 80 % of WT.

In the case of “wild-type HCV E1E2 (genotype 1a, strain H77) expression construct with C-terminal V5 epitope tag L438A”, the percent of parent (HCV1 [1]) is reported as 75 % of WT and the percent of parent (AP33 [2]) is reported as 76 % of WT.

“recombinant CD81-LEL Fc-fusion protein (Fc fusion)” was tested, and the % CD81 binding (of wild type) [11] was 50%, the enhancement of binding over wild type [12] was 49% and the % binding activity [13] was < 3%. The % of wild-type reactivity (% of wild-type reactivity) [13] was < 25, the % binding activity [14] was < 3% and the % of wild-type reactivity (% of wild-type reactivity) [14] was < 25. The % CD81 binding (of wild type) [15] was 50%, the % CD81 binding (of wild type) [16] was 48% and the enhancement of binding over wild type [17] was 56%. The enhancement of binding over wild type [18] was 13%.

For “wild-type HCV E1E2, plasmid H77c (no V5 tag) C452A”, the percent of parent (HCV1 [3]) was 77 % of WT, the percent of parent (A4 [4]) was 93 % of WT and the percent of parent (AP33 [5]) was 60 % of WT.
